Measurements from patent US4843003.

Test system: Exonuclease III (Escherichia coli)
Assay: cleavage_in_vitro
Settings: 37 C, 66 mM Tris-HCl pH 8, 0.66 mM MgCl2

Bacteriophage lambda DNA SstI terminal fragments (24.8 kb and 22.6 kb), 5' 12-nt protruding end
activity (nucleotides/min) (digested from 5' protruding end, not from SstI 3' protruding end, 14.4 kb removed per end in 32 min): 450

M13 mp18 with 4.5 kb EcoRI Drosophila Gart insert, SalI/SphI cut
activity (nucleotides/min) (after 25 s delay, one-way digestion, no sequence preference seen): 450
